The text below walks through data of patent US20210301005A1 (Genentech, published 2021).

Like-named read-outs stand apart in the source and are kept apart here.

Assay [1] concerns the target T1, human TGFβ1, mature receptor-binding domain (human, UniProt P01137 279-390).
T1 construct: Peprotech; also called TGFb1
The experiment in a line: SPR.

For assay [2], the target named is T2, human TGFβ3, mature dimeric form (human, UniProt P10600 301-412).
T2 sequence: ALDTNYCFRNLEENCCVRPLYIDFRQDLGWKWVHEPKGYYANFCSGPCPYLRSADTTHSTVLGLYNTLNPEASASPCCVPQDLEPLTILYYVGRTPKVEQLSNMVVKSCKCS
The experiment in a line: cell-based or functional assay.

The target in assay [3] is T3, human TGFβ2, mature receptor-binding domain (human, UniProt P09858 303-414 (pig entry), The mature TGFβ2 is a disulfide-linked homodimer of this 112-residue chain. The 4A11 epitope spans both monomers (p-1207).).
T3 sequence: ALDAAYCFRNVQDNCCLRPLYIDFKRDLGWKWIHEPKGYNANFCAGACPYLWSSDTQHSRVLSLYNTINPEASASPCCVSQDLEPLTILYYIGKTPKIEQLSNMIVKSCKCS
In words: cell-based or functional assay.

For assay [4], the target named is T1, human TGFβ1, mature receptor-binding …. The experiment in a line: cell-based or functional assay.
Assay [5] concerns the target T2, human TGFβ3, mature dimeric form. In words: BIAcore T200. As to the method: (§1) For binding affinity determinations of all humanized 2A10 antibodies, Surface Plasmon Resonance (SPR) measurement with a BIAcore™-T200 instrument was used. Briefly, series S CM5 biosensor chip with protein A was first applied to capture each humanized 2A10 variant to achieve approximately 100 response units (RU) on each flow cell, following by injection of 3-fold serial dilutions of human TGFβ1, TGFβ2 or TGFβ3 (0.02 nM to 5 nM) in HBS-EP buffer (0.01M HEPES pH 7.4, 0.15M NaCl, 3 mM EDTA and 0.05% v/v surfactant P20) at 25° C. with a flow rate of 50 μl/min for kinetics measurement. Association rates (ko.) and dissociation rates (koff) were calculated using a simple one-to-one Langmuir binding model (BIAcore T200 evaluation software version 2.0) to determine the equilibrium dissociation constant (KD), which was calculated as the ratio koff/kₒₙ.
For orientation: Surface plasmon resonance follows binding to a sensor surface in real time, without labels.

Assay [6] deals with T3, human TGFβ2, mature receptor-binding …. In words: BIAcore T200. As for the experimental part:
as §1

In assay [7] the target is T2, human TGFβ3, mature dimeric form. The experiment in a line: cell-based or functional assay. This is another data set of the same source.
Assay [8] deals with T3, human TGFβ2, mature receptor-binding …. The experiment in a line: cell-based or functional assay. This is another data set of the same source.
Assay [9] concerns the target T1, human TGFβ1, mature receptor-binding …. The experiment in a line: cell-based or functional assay. The source holds these as a separate data set.
For assay [10], the target named is T2, human TGFβ3, mature dimeric form. The experiment in a line: SPR.
The target in assay [11] is T3, human TGFβ2, mature receptor-binding …. The experiment in a line: SPR.
In assay [12] the target is T2, human TGFβ3, mature dimeric form. In words: cell-based or functional assay. This is another data set of the same source.
Assay [13] concerns the target T3, human TGFβ2, mature receptor-binding …. The experiment in a line: cell-based or functional assay. This is another data set of the same source.
Assay [14] addresses T1, human TGFβ1, mature receptor-binding …. In words: cell-based or functional assay. The source holds these as a separate data set.
In assay [15] the target is T2, human TGFβ3, mature dimeric form. In words: BIAcore T200. As to the method:
as §1
(§2) Binding affinity determinations of all humanized 4A11 antibodies were performed using SPR measurement with a BIAcore™-T200 instrument, as described above in Example 6 ([…]).
This is another data set of the same source.

For assay [16], the target named is T3, human TGFβ2, mature receptor-binding …. The experiment in a line: BIAcore T200. As to the method: as §1, §2
This is another data set of the same source.

For assay [17], the target named is T1, human TGFβ1, mature receptor-binding …. In words: BIAcore T200. As for the experimental part: as §1, §2
The target in assay [18] is T2, human TGFβ3, mature dimeric form. The experiment in a line: cell-based or functional assay. This is another data set of the same source.
Assay [19] concerns the target T3, human TGFβ2, mature receptor-binding …. In words: cell-based or functional assay. The source holds these as a separate data set.
Assay [20] has as its target T1, human TGFβ1, mature receptor-binding …. The experiment in a line: cell-based or functional assay. The source holds these as a separate data set.
For assay [21], the target named is T2, human TGFβ3, mature dimeric form. In words: BIAcore T200. As to the method: as §1, §2
The source holds these as a separate data set.

Assay [22] addresses T3, human TGFβ2, mature receptor-binding …. In words: BIAcore T200. As to the method: as §1, §2
This is another data set of the same source.

In assay [23] the target is T2, human TGFβ3, mature dimeric form. The experiment in a line: BIAcore T200. As for the experimental part:
as §1, §2
This is another data set of the same source.

The target in assay [24] is T3, human TGFβ2, mature receptor-binding …. The experiment in a line: BIAcore T200. As for the experimental part: as §1, §2
This is another data set of the same source.

The target in assay [25] is T1, human TGFβ1, mature receptor-binding …. In words: BIAcore T200. As to the method:
as §1, §2
The source holds these as a separate data set.

Assay [26] addresses T2, human TGFβ3, mature dimeric form. The experiment in a line: cell-based or functional assay. The source holds these as a separate data set.
Assay [27] deals with T3, human TGFβ2, mature receptor-binding …. In words: cell-based or functional assay. The source holds these as a separate data set.
For assay [28], the target named is T1, human TGFβ1, mature receptor-binding …. The experiment in a line: cell-based or functional assay. The source holds these as a separate data set.

T1 sequence (P01137 279-390 limits assumed): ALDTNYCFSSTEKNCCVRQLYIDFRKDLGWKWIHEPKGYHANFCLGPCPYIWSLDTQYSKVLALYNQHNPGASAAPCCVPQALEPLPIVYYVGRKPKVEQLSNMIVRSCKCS

B1: 21D1 (antibody, V domains shown)
VH: QVQLVQSGAEVKKPGASVKVSCKASGYTFTDYNIHWVRQAPGQGLEWMGYIYPYDGETGYNQKFKSRVTMTTDTSTSTAYMELRSLRSDDTAVYYCARGYRWFAYWGQGTLVTVSS
VL: DIQMTQSPSSLSASVGDRVTITCRASSSVPYMHWFQQKPGKAPKSLIYATSNPAYGVPSRFSGSGSGTDFTLTISSLQPEDFATYYCQQWDLNPPAFGQGTKLEIKR
In general, Kd refers to the equilibrium constant for the complex coming apart. High values mean a looser complex, low ones a tighter complex. Molecule B1 showed an equilibrium dissociation constant (Kd) in assay [1] of 0.008 nM. The “Blocking IC50” value in assay [2] was over 200 nM; in assay [3], over 200 nM; in assay [4], 0.013 nM.

B2: h2A10.v3 (antibody, human IgG1, kappa, N297G, V domains shown)
VH: EVQLLESGGGLVQPGGSLRLSCAASGFDFNSYGMSWVRQAPGKGLELVSDIVSKTYSYTTYYSDSVKDRFTISRDDSKNTLYLQMNSLRAEDTAVYYCTVAPGGSFDYWGQGTLVTVSS
VL: DIQLTQSPSSLSASVGDRVTITCRASQSVSISRFNLMHWYQQKPGKAPKLLIYRASNLASGVPSRFSGSGSGTDFTLTISSLQPEDFATYYCQHSRESPWTFGGGTKVEIKR
notes: human IgG1
For B2, the results for the Kd in assay [5] and in assay [6] were 0.0026 nM and 0.482 nM, respectively. Moreover, the entries for the “HEKBlue TGFβ blocking IC50” value in assay [7], in assay [8] and in assay [9] were 0.05 nM, over 200 nM and over 200 nM, respectively.

B3: h2A10.v4 (antibody, human IgG1, kappa, N297G, V domains shown)
VH: EVQLLESGGGLVQPGGSLRLSCAASGFDFNSYGMSWVRQAPGKGLELVSDIVSKTYNYATYYSDSVKDRFTISRDDSKNTLYLQMNSLRAEDTAVYYCTVAPGGSFDYWGQGTLVTVSS
VL: DIQLTQSPSSLSASVGDRVTITCRASQSVSISRFNLMHWYQQKPGKAPKLLIYRASNLASGVPSRFSGSGSGTDFTLTISSLQPEDFATYYCQHSRESPWTFGGGTKVEIKR
notes: human IgG1
As for B3, the results for the Kd in assay [5] and in assay [6] were 0.0019 nM and 0.3 nM, respectively. The “HEKBlue TGFβ blocking IC50” value in [7] is 0.01 nM; in [8] it was over 200 nM; in [9], over 200 nM.

B4: 1D11 (antibody, V domains shown)
VH: QVQLQQSGPELVRPGASVKLSCKASGYIFITYWMNWVKQRPGQGLEWIGQIFPASGSTNYNEMFEGKATLTVDTSSSTAYMQLSSLTSEDSAVYYCARGDGNYALDAMDYWGQGTSVTVSS
VL: DIVLTQSPASLAVSLGQRATISCRASESVDSYGNSFMHWYQQKSGQPPKLLIYLASNLESGVPARFSGSGSRTDFTLTIDPVEADDAATYYCQQNNEDPLTFGAGTKLEIK
notes: also called pan-TGFβ antibody 1D11
As for B4, the dissociation constant Kd in assay [10] came to 0.007 nM; in [11], 0.009 nM; in assay [1] it was 0.038 nM. The “Blocking IC50” value in assay [2] was found to be 0.04 nM; in [3], 3.6 nM; in assay [4] it was 0.5 nM.

B5: h4A11.v7 (antibody, human IgG1, kappa, N297G)
heavy: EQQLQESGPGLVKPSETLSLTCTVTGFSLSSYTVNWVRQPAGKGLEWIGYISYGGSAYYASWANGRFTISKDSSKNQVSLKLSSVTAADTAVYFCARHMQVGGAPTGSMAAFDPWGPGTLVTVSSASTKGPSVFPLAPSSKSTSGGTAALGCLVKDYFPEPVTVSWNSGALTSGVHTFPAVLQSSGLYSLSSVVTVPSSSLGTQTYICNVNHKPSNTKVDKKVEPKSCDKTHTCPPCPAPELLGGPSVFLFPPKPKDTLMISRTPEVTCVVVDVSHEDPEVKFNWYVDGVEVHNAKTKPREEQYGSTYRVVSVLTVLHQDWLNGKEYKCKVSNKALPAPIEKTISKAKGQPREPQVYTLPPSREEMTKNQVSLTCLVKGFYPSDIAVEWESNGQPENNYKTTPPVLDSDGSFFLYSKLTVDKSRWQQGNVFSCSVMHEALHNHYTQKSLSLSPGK
light: EAVLTQSPGTLSLSPGERATLSCQSSQSVYNNNYLSWFQQKPGQPPRLLIYGASTLTSGVPDRFSGSGSGTDFTLTISRLEPEDFAVYYCAGGYSGSSDKYAFGGGTKVEIKRTVAAPSVFIFPPSDEQLKSGTASVVCLLNNFYPREAKVQWKVDNALQSGNSQESVTEQDSKDSTYSLSSTLTLSKADYEKHKVYACEVTHQGLSSPVTKSFNRGEC
As to B5, the “HEKBlue TGFβ blocking IC50” value in assay [12] was 0.03 nM; in [13], 0.09 nM; in [14], over 200 nM; in assay [18], 0.03 nM; in [19], 0.09 nM; in assay [20], over 200 nM. In addition, the figures for the “HEKBlue TGFβ blocking IC50” value in [26], in assay [27] and in assay [28] were 0.03 nM, 0.09 nM and over 200 nM, respectively. The dissociation constant (Kd) in assay [15] is 0.0097 nM; in assay [16], 0.0063 nM; in assay [17], over 5 nM; in [21], 0.0097 nM; in [22], 0.0063 nM; in [23], 0.0097 nM. For the same molecule, the results for the Kd in assay [24] and in [25] were 0.0063 nM and over 5 nM, respectively.
